From article PMC11856044

Target: Bombyx mori ribosomal protein RPL12 (Bombyx mori (endogenous in BmN))
Test: Western blot of total cell proteins; total proteins of BmN cells (mock, control siRNA, BmRPL12 siRNA), anti-RPL12 polyclonal antibody; monomer and dimer bands

stoichiometry N: 2
Substance: Bombyx mori ribosomal protein RPL12 (natural protein)
